Measurements reported in patent US5804688A, “Compounds and compositions for delivering active agents” (Emisphere Technologies, Inc., priority 1997, dated 1998).
Read-outs that look alike come from different tables or passages of the source.

Experiments:
[1] = rat, in vivo, 50 mg/kg
Method: (§1) Rats were administered, orally and by intracolonic instillation, dosing solutions of 1 mg/kg of interferon and no carrier.

[2] = In vivo interferon delivery in rats (serum interferon, ELISA); details: 1 mg/kg interferon, no carrier
Method: as §1

## O=C(O)CCCc1ccc(NC(=O)COc2ccccc2)cc1 [Compound 9]
[1]
  Mean peak serum interferon concentration: 2611±695

## interferon
[2]; intracolonic (IC)
  Mean peak serum interferon concentration: 79±100
[2]; oral (PO)
  Mean peak serum interferon concentration: 1951±1857
